Assay results reported in patent US20190315842A1 (DUKE UNIVERSITY, published 2019).
Where no end group is shown, it is not given here. The star is where a group is joined. Biotin = O=C1N[C@H]2[C@H](CS[C@H]2CCCCC(=O)*)N1

T1: sclerosis autoantigen (Scl-70) (UniProt P11387 2-765, limits assumed)
T1 sequence (looked up): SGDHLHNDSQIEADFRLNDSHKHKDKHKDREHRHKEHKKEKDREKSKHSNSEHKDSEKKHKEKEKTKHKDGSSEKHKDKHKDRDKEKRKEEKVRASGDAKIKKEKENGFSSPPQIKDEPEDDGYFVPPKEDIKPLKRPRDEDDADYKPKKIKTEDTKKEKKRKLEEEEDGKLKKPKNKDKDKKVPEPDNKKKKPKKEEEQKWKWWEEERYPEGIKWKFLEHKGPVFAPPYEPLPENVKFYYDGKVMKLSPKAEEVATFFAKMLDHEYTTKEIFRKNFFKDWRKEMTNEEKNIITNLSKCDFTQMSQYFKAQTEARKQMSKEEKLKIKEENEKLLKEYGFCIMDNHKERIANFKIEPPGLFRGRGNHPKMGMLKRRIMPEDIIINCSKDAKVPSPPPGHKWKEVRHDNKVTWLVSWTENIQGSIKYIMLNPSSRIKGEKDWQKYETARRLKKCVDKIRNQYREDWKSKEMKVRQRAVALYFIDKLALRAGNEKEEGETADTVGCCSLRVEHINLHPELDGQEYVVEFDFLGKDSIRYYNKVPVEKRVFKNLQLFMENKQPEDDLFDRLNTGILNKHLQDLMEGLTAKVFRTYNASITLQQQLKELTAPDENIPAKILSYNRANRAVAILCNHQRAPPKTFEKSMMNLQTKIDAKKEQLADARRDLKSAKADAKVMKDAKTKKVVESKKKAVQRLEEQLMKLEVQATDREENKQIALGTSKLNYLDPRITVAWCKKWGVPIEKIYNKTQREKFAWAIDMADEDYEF

T2: histidine-tRNA ligase (Jo-1) (UniProt P12081 2-509)
T2 sequence (looked up): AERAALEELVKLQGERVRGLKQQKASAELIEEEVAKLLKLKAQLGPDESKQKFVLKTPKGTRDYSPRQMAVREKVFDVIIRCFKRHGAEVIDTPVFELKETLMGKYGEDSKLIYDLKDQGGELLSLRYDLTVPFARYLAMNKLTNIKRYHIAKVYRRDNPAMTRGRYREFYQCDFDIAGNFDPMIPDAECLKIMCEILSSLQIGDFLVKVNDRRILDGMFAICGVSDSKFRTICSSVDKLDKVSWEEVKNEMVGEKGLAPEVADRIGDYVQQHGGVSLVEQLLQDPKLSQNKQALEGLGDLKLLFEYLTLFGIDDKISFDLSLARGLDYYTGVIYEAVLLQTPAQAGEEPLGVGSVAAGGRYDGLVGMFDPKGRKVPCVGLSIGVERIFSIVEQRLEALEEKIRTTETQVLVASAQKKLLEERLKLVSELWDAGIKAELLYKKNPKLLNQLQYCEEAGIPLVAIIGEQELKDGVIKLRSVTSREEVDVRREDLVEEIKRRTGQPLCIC

T3: GPPPPIDNGDITSFP(GGGK-biotin)
T3 construct: also called biotinylated 15-mer peptide; biotinylated 19-mer
T3 peptide: GPPPPIDNGDITSFPGGGK(Biotin)

T4: systemic lupus erythematosus autoantigen SSB (UniProt P05455 1-408, limits assumed)
T4 sequence (looked up): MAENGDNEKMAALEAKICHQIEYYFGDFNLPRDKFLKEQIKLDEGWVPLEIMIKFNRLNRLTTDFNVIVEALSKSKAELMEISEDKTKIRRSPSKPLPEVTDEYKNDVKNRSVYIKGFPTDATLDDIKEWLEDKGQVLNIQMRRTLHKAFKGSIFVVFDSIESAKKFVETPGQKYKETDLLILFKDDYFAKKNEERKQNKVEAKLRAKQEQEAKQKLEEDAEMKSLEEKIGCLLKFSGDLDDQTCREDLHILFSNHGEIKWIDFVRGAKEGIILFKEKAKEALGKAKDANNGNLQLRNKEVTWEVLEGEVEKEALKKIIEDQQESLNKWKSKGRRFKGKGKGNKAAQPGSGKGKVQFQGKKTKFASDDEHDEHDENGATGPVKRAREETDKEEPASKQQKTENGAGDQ


Key:
[1] = target: ribonucleoprotein (RNP); experiment: AtheNA Multi-Lyte ANA, Ab at 6.25 ug/ml;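 further: monoclonal antibodies screened for reactivity against a panel of nuclear autoantigens, with an anti-HIV and an anti-RSV monoclonal antibody serving as controls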
[2] = target: T5, Sm (sphingomyelin); experiment: AtheNA Multi-Lyte ANA, Ab at 6.25 ug/ml;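 further: monoclonal antibodies screened for reactivity against a panel of nuclear autoantigens, with an anti-HIV and an anti-RSV monoclonal antibody serving as controls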
T5 construct: in an ANA panel of nuclear antigens Sm is usually the Smith ribonucleoprotein antigen; Kept, but see recheck

[3] = target: systemic lupus erythematosus autoantigen SSA; experiment: AtheNA Multi-Lyte ANA, Ab at 6.25 ug/ml;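 further: monoclonal antibodies screened for reactivity against a panel of nuclear autoantigens, with an anti-HIV and an anti-RSV monoclonal antibody serving as controls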
[4] = target: T1, sclerosis autoantigen (Scl-70); experiment: AtheNA Multi-Lyte ANA, Ab at 6.25 ug/ml;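 further: monoclonal antibodies screened for reactivity against a panel of nuclear autoantigens, with an anti-HIV and an anti-RSV monoclonal antibody serving as controls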
[5] = target: T2, histidine-tRNA ligase (Jo-1); experiment: AtheNA Multi-Lyte ANA, Ab at 6.25 ug/ml
[6] = target: ribonucleoprotein (RNP); experiment: AtheNA Multi-Lyte ANA, Ab at 12.5 ug/ml;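 further: monoclonal antibodies screened for binding to a panel of nuclear autoantigens (SSA, SSB, Sm, RNP, Scl-70, Jo-1, dsDNA, CentB, histones), with anti-HIV and anti-RSV antibodies as controls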
Method: (§1) All 7 mAbs were tested against the AtheNA Multi-Lyte panel of autoantigens. The AtheNA Multi-Lyte ANA test for a panel of nuclear antigens: systemic lupus erythematosus autoantigens SSA and SSB, sphingomyelin (Sm), ribonucleoprotein (RNP), sclerosis autoantigen (Scl-70), histidine-tRNA ligase (Jo-1), double-stranded DNA (dsDNA), centromere B (CentB), and histones. 4e10 (Anti HIV, NIH AIDS Reagent Program) and SYNAGIS® (anti-RSV monoclonal antibody palivizumab; “Synagis”) were used a controls.

[7] = target: T5, Sm (sphingomyelin); experiment: AtheNA Multi-Lyte ANA, Ab at 12.5 ug/ml;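 further: monoclonal antibodies screened for binding to a panel of nuclear autoantigens (SSA, SSB, Sm, RNP, Scl-70, Jo-1, dsDNA, CentB, histones), with anti-HIV and anti-RSV antibodies as controls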
Method: as §1

[8] = target: systemic lupus erythematosus autoantigen SSA; experiment: AtheNA Multi-Lyte ANA, Ab at 12.5 ug/ml;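 further: monoclonal antibodies screened for binding to a panel of nuclear autoantigens (SSA, SSB, Sm, RNP, Scl-70, Jo-1, dsDNA, CentB, histones), with anti-HIV and anti-RSV antibodies as controls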
Method: as §1

[9] = target: T1, sclerosis autoantigen (Scl-70); experiment: AtheNA Multi-Lyte ANA, Ab at 12.5 ug/ml;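 further: monoclonal antibodies screened for binding to a panel of nuclear autoantigens (SSA, SSB, Sm, RNP, Scl-70, Jo-1, dsDNA, CentB, histones), with anti-HIV and anti-RSV antibodies as controls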
Method: as §1

[10] = target: T2, histidine-tRNA ligase (Jo-1); experiment: AtheNA Multi-Lyte ANA, Ab at 12.5 ug/ml
Method: as §1

[11] = target: T3, GPPPPIDNGDITSFP(GGGK-biotin); experiment: ELISA: biotinylated peptide captured on immobilized Neutravidin, antibody at 0.5 µg/ml, anti-human IgG-HRP/ABTS, OD 405 nm
Method: After washing, recombinant human monoclonal antibodies were added to the wells at 0.5 μg/ml and incubated for 2 hr at room temperature. The wells were washed and incubated with goat anti-human IgG-gamma horseradish peroxidase conjugate at a 1:1000 dilution. After further washing, bound antibody was detected with 2,2′-azino-bis (3-ethylbenzthiazoline-6-sulfonic acid)(ABTS)/hydrogen peroxide and the absorbance measured at 405 nm.

[12] = target: ribonucleoprotein (RNP); experiment: AtheNA Multi-Lyte ANA, Ab at 50 ug/ml;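 further: monoclonal antibodies probed against a nuclear autoantigen panel (SSA, SSB, Sm, RNP, Scl-70, Jo-1, dsDNA, CentB, histones), with anti-HIV 4E10 and palivizumab as control antibodies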
Method: as §1

[13] = target: T5, Sm (sphingomyelin); experiment: AtheNA Multi-Lyte ANA, Ab at 50 ug/ml;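 further: monoclonal antibodies probed against a nuclear autoantigen panel (SSA, SSB, Sm, RNP, Scl-70, Jo-1, dsDNA, CentB, histones), with anti-HIV 4E10 and palivizumab as control antibodies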
Method: as §1

[14] = target: systemic lupus erythematosus autoantigen SSA; experiment: AtheNA Multi-Lyte ANA, Ab at 50 ug/ml;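 further: monoclonal antibodies probed against a nuclear autoantigen panel (SSA, SSB, Sm, RNP, Scl-70, Jo-1, dsDNA, CentB, histones), with anti-HIV 4E10 and palivizumab as control antibodies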
Method: as §1

[15] = target: T1, sclerosis autoantigen (Scl-70); experiment: AtheNA Multi-Lyte ANA, Ab at 50 ug/ml;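 further: monoclonal antibodies probed against a nuclear autoantigen panel (SSA, SSB, Sm, RNP, Scl-70, Jo-1, dsDNA, CentB, histones), with anti-HIV 4E10 and palivizumab as control antibodies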
Method: as §1

[16] = target: T4, systemic lupus erythematosus …; experiment: AtheNA Multi-Lyte ANA, Ab at 50 ug/ml
Method: as §1

[17] = target: T2, histidine-tRNA ligase (Jo-1); experiment: AtheNA Multi-Lyte ANA, Ab at 50 ug/ml
Method: as §1

| AtheNA signal [1] | AtheNA signal [2] | AtheNA signal [3] | AtheNA signal [4] | AtheNA signal [5] | AtheNA signal [6] | AtheNA signal [7] | AtheNA signal [8] | AtheNA signal [9] | AtheNA signal [10] | binding result [11] | AtheNA signal [12] | AtheNA signal [13] | AtheNA signal [14] | AtheNA signal [15] | AtheNA signal [16] | AtheNA signal [17] | Binder |
| --- | --- | --- | --- | --- | --- | --- | --- | --- | --- | --- | --- | --- | --- | --- | --- | --- | --- |
| 7 | 4 | 4 | 3 | 4 | 7 | 7 | 4 | 3 | 2 | binds | 10 | 7 | 7 | 4 | 9 | 7 | Ab7968 (antibody, IgG1, V domains shown, Recombinant human antibody with IgG1 heavy chain backbone and kappa light chain constant; they begin at LVESGGG and MTQSP; also called mAb 7968; mAb7968) VH: LVESGGGVVQPGRSLRLSCAASGFTFSRYGMHWVRQAPGKGLEWVAVMSYDGSTKYYADSVKGRFAISRDNPKNTLFLQMNSLRPDDTAVYYCAKGGAAAAVMDVWGKGTTVTVSS VL: MTQSPDSLTVSLGERATISCKSSQRLLYSSNNKNYLAWYQQKPGQPPKLLMYWASTRESGVPDRFSGSGSGTDFSLTISSLQAEDVAVYYCQQYYNPPWTFGQGTKVEVK |
| 2 | 4 | 2 | 1 | 4 | 3 | 3 | 2 | 2 | 5 |  | 5 | 4 | 2 | 2 | 8 | 4 | Ab7962/293i (antibody, V domains shown, Recombinant human antibody with IgG1 heavy chain backbone and kappa light chain constant (IgM in the donor B cell); they begin at LVESGGG and MTQSL; also called clone 27; pH007962/pK005996) VH: LVESGGGLVQPGGSLRLSCAASGFTFSSYEMNWVRQAPGKGLEWVSYISSSGSTIYYADSVKGRFTISRDNAKNSLYLQMNSLRAEDTAVYYCARVEQLAPSPYMDVWGKGTTVTVSS VL: MTQSLDSLTVSLGERATINCKSSQSLLYTSNNKNYLAWYQQKSGQPPKLLIYWASIRDSGVPDRFSGSGSATDFTLTINNLQAEDVAVYFCQQYYKTPLTFGGGTKVEVR |
| 3 | 3 | 9 | 2 | 3 | 3 | 1 | 9 | 2 | 3 | binds | 6 | 4 | 11 | 2 |  | 5 | Ab7957/293i (antibody, IgG1, V domains shown, Recombinant human antibody with IgG1 heavy chain backbone and kappa light chain constant; they begin at LVESGGG and MTQSP; also called Ab7957i; mAb 7957) VH: LVESGGGVVPPGKSLRLSCAASGFTFSLYGIHWVRQAPGKGLEWVAVISYDGNTKYYTDSVKGRFTISRDNAKNTIYLQMNSLRLDDTAVYYCAKGAANSATFDFWGRGTMVTVSS VL: MTQSPDSLTLSLGERATINCRSSRTVLYRSNNKNYLAWYQHKPGQPPKLLMSWASTRETGVPDRFSGSGSGTHFTLTITSLQPEDVAVYYCQQYYSPPWTFGQGTKVEIR |
